B1: 1A9: monoclonal antibody, heavy chain SEQ ID No. 15, light chain SEQ ID No. 16; hybridoma CNCM I-3613; IgG1 k (antibody, V domains shown)
VH: QIQLVQSGPELKKPGETVKISCKASGQTFTNYGMNWVKQAPGKGLKWMGWINTYTGEPTYADDFKGRFAFSLETSASTAYLQINNLKNEDTATYFCARGGYYRYAAYWGQGTLVTVSA
VL: DIQMTQSPASLSASVGETVTITCRASGNIHNYLAWYQQKQGKSPQLLVYNAKTLADGVPSRFSGSGSGTQYSLKINSLQPEDFGCYFCQHFWTTPYTFGGGTKLELI
modifications: mus musculus
notes: hybridoma CNCM I-3613; IgG1 k
B2: 3G7: monoclonal antibody, heavy chain SEQ ID No. 39, light chain SEQ ID No. 40; hybridoma CNCM I-3616; IgM (antibody, V domains shown)
VH: QVQLQQSGPELVRPGTSVKISCKASGYTFTNYWLGWVKQRPGHGLEWIGDIFPGGIYTNYNEKIKGEATLTADTSSSTAYLQLSSLTSEDSFVYFCARFDDFDPFFASWGQGTLVTVSA
VL: DVLMTQTPLSLPVSLGDQASISCRSSQTIVHSNGNTYLEWYLQKPGQSPKLLIYKVSNRFSGVPDRFSGSGSGTDFTLNISRVEAEDLGIYYCFQSSRVPYTFGGGTKLEIK
modifications: mus musculus
notes: hybridoma CNCM I-3616; IgM
B3: 3C11: monoclonal antibody, heavy chain SEQ ID No. 31, light chain SEQ ID No. 32; hybridoma CNCM I-3614; IgM k (antibody, V domains shown)
VH: QVQLKESGPGLVAPSQSLSITCTVSGFSLSSYGVHWVRQPPGKGLEWLGVIWVGGTTNFKSALMSRLSISKDNSKSQVFLKMNSLQTDDTAMYYCARERPYGNPLVDWGQGTLVTVSA
VL: DIVMTQSHKFMSTSVGDRVSITCKASQDVSTAVAWYQQKPGQSPKLLIYSASYRYTGVPDRFTGSGSGTDFTFTISSVQAEDLAVYYCQQHYSNPRTFGGGTKLEIK
modifications: mus musculus
notes: hybridoma CNCM I-3614; IgM k
B4: 1A6: monoclonal antibody, heavy chain SEQ ID No. 7, light chain SEQ ID No. 8; hybridoma CNCM I-3612; IgM k (antibody, V domains shown)
VH: EVQLQQSGPELVKPGASVKISCKTSGYTFTEYTLHWVKQSHGKSLEWIGGIDPNNGGTSYNQKFKGKATLTVDKSSSTAYMELRSLTSEDSAVYLCARSNSYYFDYWGQGTTLTVSS
VL: DIQMTQTTSSLSASLGDSVTISCRARQDIRNFLNWYQQRPDGTVKLLIYYTSRLHSGVPSRFSGSGSGTDYSLTISNLDQEDVATYFCQQGNTLPFTFGSGTKLEIK
modifications: mus musculus
notes: hybridoma CNCM I-3612; IgM k
B5: 2E11: monoclonal antibody, heavy chain SEQ ID No. 23, light chain SEQ ID No. 24; hybridoma CNCM I-3615; IgG1 k (antibody, V domains shown)
VH: EVQLQQSGAEVVKPGASVKLSCTASGFNIKDTYMHWVKQRPEQGLEWIGRIDPANGNTKSDPKFQGKAIKTADTSSNTAYLQLSSLTSEDTAVYYCTSGYTNYVWFTYWGQGTLVTVSA
VL: DIVMSQSPSSLAVAAGEKVTMSCKASQSLLNSRTRKNYLAWYQQKPGQSPKLLIYWASTRESGVPDRFTGSGSGTDFSLTISSVQAEDLAVYYCKQSYNLYTFGGGTKLEIK
modifications: mus musculus
notes: hybridoma CNCM I-3615; IgG1 k

Key:
different cell lines = assay: Recognition of different cell lines by the antibodies with the FACSCAN instrument; assay type: cell-based; conditions: FACSCAN analysis of a panel of tumor lines
Excerpt: The hybridomas secreting antibodies recognizing the resistant tissues, and recognizing neither the tumors from the control batch PBS nor the native A549 cell which was used for establishing the tumor in vivo, are cloned and frozen. The antibodies are then produced in ascite liquid, purified, retested in immunohistochemistry before being tested in vivo on cells expressing a surface structure or antigen recognized by the antibodies (these cells were selected beforehand by FACSCAN analysis of a non-exhaustive panel of tumor lines available for each antibody).
Table 6 below as for it, groups the cells recognized by these antibodies (Recognition of the antibodies selected in histology with the FACSCAN instrument, of different cell lines).

BxPC3 cells = assay: Pancreas xenograft model BxPC3; assay type: in vivo, athymic "Nude" mice; conditions: 1 mg/dose two times a week; results in FIG. 7
Protocol: 10.10^6 BxPC3 cells are grafted on athymic “Nude” mice. Five days after the grafting, the tumors are measurable and the mice are divided into two batches of six mice with tumors of homogenous size. The mice are either treated with PBS (negative control) or with the antibody 2E11 (1 mg/dose), two times a week. Tumor volume tracking is carried out twice a week.
The results are illustrated in FIG. 7.

Row | Molecule | In vivo model (cells recognized by these antibodies) (different cell lines) | In vivo model (cells recognized by these antibodies) (different cell lines; clone D10) | anti-tumoral activity (tumor volume) (BxPC3 cells)
1 | B1 | HepG2/H69/LnCap |  | 
2 | B2 | DU145 |  | 
3 | B3 | Colo205 |  | 
4 | B4 |  | LnCap/HT29 | 
5 | B5 | HT29/BxPC3/H69 |  | validate the functional activity

Source: patent US8241646B2, “Method for generating active antibodies against a resistance antigen, antibodies obtained by said method and their uses” (Pierre Fabre Medicament, priority 2006, dated 2012)
